{
  "source": "patent US5128450A",
  "about": "“Nonglycosylated human interleukin-3 analog proteins” (priority 1989, dated 1992)",
  "molecules": {"B1": {"name": "Met^3 rhuIL-3 (Pro^8 Asp^15 Asp^70): truncated, non-glycosylated IL-3 analog having an N-terminus at Met^3, expressed from pIXY290 (protein, UniProt P08700 20-152, looked up, variant del1-2 N15D N70D)", "Interleukin-3": "MTQTTPLKTSWVDCSNMIDEIITHLKQPPLPLLDFNNLNGEDQDILMENNLRRPNLEAFNRAVKSLQDASAIESILKNLLPCLPLATAAPTRHPIHIKDGDWNEFRRKLTFYLKTLENAQAQQTTLSLAIF"}, "B2": {"name": "huIL-3 (Ser^8): composition of huIL-3 (Ser^8) produced in E. coli, reported by Valent et al. (protein, UniProt P08700 20-152, looked up, variant P8S)", "Interleukin-3": "APMTQTTSLKTSWVNCSNMIDEIITHLKQPPLPLLDFNNLNGEDQDILMENNLRRPNLEAFNRAVKSLQNASAIESILKNLLPCLPLATAAPTRHPIHIKDGDWNEFRRKLTFYLKTLENAQAQQTTLSLAIF"}},
  "key": {"human bone marrow cells": {"system": "human bone marrow cells", "assay": "Human bone marrow proliferation assay", "assay_type": "cell-based", "description": "Freshly isolated human bone marrow cells are preincubated for 2 hours at 37° C., 5% CO2, in tissue culture flasks containing 2×10^6 cells per mi prewarmed, pregassed serum-free RPMI1640 medium (Gibco, Chagrin Falls, OH, USA) containing 50 units/ml penicillin, 50 μg/ml streptomycin, and 300 μg/ml fresh L-glutamine (hereinafter \"assay medium\"). After preincubation, nonadherent cells are removed by pipetting the media gently over the surface of the flask. Nonadherent cells are collected by centrifugation at 1000 rpm for 10 minutes at 4° C., resuspended in a small volume of assay medium containing 10% fetal bovine serum (FBS), and counted using Trypan blue for viability and Turks stain for recovery of white cells. Cells are kept at about 4° C. in assay medium containing 10% FBS until added to assay plates.\n50 μl assay medium are added to each well of a 96 well flat bottom tissue culture plate. 50 μl of sample diluted in assay medium are added to the first well of each row, and serial dilutions are made across each row in the usual manner. […] After incubation, cells are harvested onto glass fiber filters, washed, and tested for incorporated radioactivity using a scintillation counter. Units of huIL-3 activity are calculated by reference to the quantity of huIL-3 which induces 50% of maximal thymidine incorporation. […]"}, "rhesus monkeys": {"system": "rhesus monkeys", "conditions": "cited from earlier work"}},
  "data": [
    {"molecule": "B1", "values": [
      {"measurement": "biological activity compared with production lots of Example 2", "setting": "human bone marrow cells", "value": "comparable in biological activity to the rhuIL-3 production lots"}
    ]},
    {"molecule": "B2", "values": [
      {"measurement": "intracellular histamine (IH) in WBC", "setting": "rhesus monkeys; after IL-3 treatment until day 8-10", "value": "rise continuously"},
      {"measurement": "white blood cell (WBC) increase", "setting": "rhesus monkeys; by day 14, 11, 33, 100 μg/kg/day s.c. thrice daily", "value": "2-3 fold"},
      {"measurement": "plasma histamine", "setting": "rhesus monkeys; rhesus monkey, in vivo", "value": "rise in plasma histamine values"},
      {"measurement": "skin side effects (skin biopsy)", "setting": "rhesus monkeys; rhesus monkey, in vivo", "value": "urticaria-like exanthem revealing infiltration of mast cells and lymphocytes into the dermis"}
    ]}
  ]
}
